We go through three molecules from PMC3060825, “Structure and Function of the First Full-Length Murein Peptide Ligase (Mpl) Cell Wall Recycling Protein” (PLoS ONE, 2011).

Data set [1] addresses murein peptide ligase (Mpl) from Psychrobacter arcticus 273-4 (Psychrobacter arcticus 273-4). The data set is described as follows: SEC-MALS; SEC/SLS: 1x30 cm Superdex 200 coupled with miniDAWN static light scattering and Optilab differential refractive index detectors; 20 mM Tris-HCl pH 8.0, 150 mM sodium chloride, 0.02% sodium azide; molecular weight by ASTRA 5.1.5. (In general: SEC sorts molecules by how far they enter the pores of the column.)

For data set [2] the target is unchanged. Nature of the data set: SEC; elution of the same Superdex 200 run (refractive index trace) compared with the BioRad gel filtration standard (158, 44 and 17 kDa).
Substrate in data set [3]: Nc1ncnc2c1ncn2[C@@H]1O[C@H](COP(=O)(O)OP(=O)(O)OP(=O)(O)O)[C@@H](O)[C@H]1O
The data set is described as follows: purified protein. Type of data set: biochemical, Psychrobacter arcticus. The settings on record: 0.4 mM UDP-MurNAc, 0.25 mM L-Ala-γ-D-Glu-meso-A2pm, 5 mM MgCl2, pH 8.4, 30 min.

Substrate in data set [4]: CC(=O)N[C@H]1[C@@H](OP(=O)(O)OP(=O)(O)OC[C@H]2O[C@@H](n3ccc(=O)[nH]c3=O)[C@H](O)[C@@H]2O)O[C@H](CO)[C@@H](O)[C@@H]1O[C@H](C)C(=O)O
The data set is described as follows: purified protein. Type of data set: biochemical, Psychrobacter arcticus. Conditions: 5 mM ATP, 0.25 mM L-Ala-γ-D-Glu-meso-A2pm, 5 mM MgCl2, pH 8.4, 30 min, labelled compound.

Data set [5] concerns the molecule itself. The data set is described as follows: SEC; 100 µl of 1.3 mg of EcMpl on Superdex 200 10/300 GL; 20 mM potassium phosphate pH 7.4, 0.15 mM NaCl, 0.01% 2-mercaptoethanol; 0.5 ml/min, detection at 280 nm.

Regarding “murein peptide ligase (Mpl) from Psychrobacter arcticus 273-4 (enzyme)”, the stoichiometry N (as a rule, a count of units in the complex or per binding partner) in data set [1] was determined as 2.09; in data set [2], 4.

B1: PaMpl (Psychrobacter arcticus 273-4) (protein)
chain: MHIHILGICGTFMGSLALLARALGHTVTGSDANIYPPMSTQLEQAGVTIEEGYLIAHLQPAPDLVVVGNAMKRGMDVIEYMLDTGLRYTSGPQFLSEQVLQSRHVIAVAGTHGKTTTTTMLAWILHYAGIDAGFLIGGVPLVNTTDTNLQQVFAHSSYLGTEKDDSDNSVNTGYFVIEADEYDSAFFDKRSKFVHYRPRTAILNNLEFDHADIFADLDAIQTQFHHMVRMIPSTGKIIMPAATISLEDTLAKGVWTPIWRTSVIDSTISSVRREDSPLENSQAENSSDWQAELISADGSQFTVSFNDNKEATALVNWSMSGLHNVNNALVAIAAAYNIGVSVKTACAALSAFAGIKRRMELIGDVNDILVFDDFAHHPTAITTTLDGAKKKLADRRLWAIIEPRSNTMKMGIHQDSLAQSATLADHTLWYEPTGLEWGLKEVIDNATIANPSIGSQQVLSSVDDIIKHICTHAKAGDAIVIMSNGGFEGIHQRLLTALGNIVAIL
notes: full length, 505 residues; N-terminal His6 tag (…) kept for kinetics; E. coli MLD2502 (delta mpl); 57,187 Da with tag; dimer in solution by light scattering
As for B1, in data set [3], the Km (as a rule, the concentration of substrate that gives half-maximal velocity) turned out to be 110 ± 50 µM; the kcat (as a rule, the maximal rate divided by the concentration of active sites) was 4.33 ± 0.333 s⁻¹; the kcat/Km – broadly, the turnover number divided by the Michaelis constant – was 40000 ± 18300 M⁻¹ s⁻¹. Besides, in data set [4], the Km was determined as 1000 ± 130 µM, the kcat was 4.33 ± 0.333 s⁻¹ and the kcat/Km was 4330 ± 650 M⁻¹ s⁻¹.

B2: Mpl from Escherichia coli (enzyme, UniProt P37773 1-457, looked up)
chain: MRIHILGICGTFMGGLAMLARQLGHEVTGSDANVYPPMSTLLEKQGIELIQGYDASQLEPQPDLVIIGNAMTRGNPCVEAVLEKNIPYMSGPQWLHDFVLRDRWVLAVAGTHGKTTTAGMATWILEQCGYKPGFVIGGVPGNFEVSAHLGESDFFVIEADEYDCAFFDKRSKFVHYCPRTLILNNLEFDHADIFDDLKAIQKQFHHLVRIVPGQGRIIWPENDINLKQTMAMGCWSEQELVGEQGHWQAKKLTTDASEWEVLLDGEKVGEVKWSLVGEHNMHNGLMAIAAARHVGVAPADAANALGSFINARRRLELRGEANGVTVYDDFAHHPTAILATLAALRGKVGGTARIIAVLEPRSNTMKMGICKDDLAPSLGRADEVFLLQPAHIPWQVAEVAEACVQPAHWSGDVDTLADMVVKTAQPGDHILVMSNGGFGGIHQKLLDGLAKKAEAAQ
notes: Mpl (murein peptide ligase, UDP-MurNAc:L-Ala-gamma-D-Glu-meso-A2pm ligase), Escherichia coli; also called EcMpl; E. coli ortholog
Consider B2, for which the “stoichiometry N” value in data set [5] came out at 2.
